This note sets out measurements from US20260078159A1 (CUGENE, published 2026).

Sequences and labels used below:
B1: P-1238 (antibody, human IgG1, kappa, V domains shown)
VH: EVQLLESGGGLVQPGGSLRLSCAASGFTFTNYYMYWVRQAPGKGLEWMGGINPSNGGTNYADKFKGRFTLSTDSSKNTLYLQMNSLRAEDTAVYYCARRDYRFDMGFDYWGQGTLVTVSS
VL: EIVLTQSPATLSLSPGERATLSCRASQGVSTSGYSYLHWYQQKPGQAPRLLIYLASYRESGVPARFSGSGSGTDFTLTISSLEPEDFAVYYCQHSRDLPLTFGGGTKVEIKR
B2: P-1129 (antibody, human IgG1, kappa, V domains shown)
VH: QVQLVQSGVEVKKPGASVKVSCKASGYTFTNYYMYWVRQAPGQGLEWMGGINPSNGGTNFNEKFKNRVTLTTDSSTTTAYMELKSLQFDDTAVYYCARRDYRFDMGFDYWGQGTTVTVSS
VL: B1 VL with E59A
B3: P-1175 (antibody, human IgG1, kappa, V domains shown)
VH: B1 VH with M48V, G49S, L70I, T72R, S74N
VL: B1 VL with Q27K, R58L
B4: P-1127 (antibody, human IgG1, kappa, V domains shown)
VH: B2 VH
VL: B1 VL
B5: P-1181 (antibody, human IgG1, kappa, V domains shown)
VH: B1 VH with M48V, G49S, Y60F, A61N, K63S, F64V, L70I, T72R, S74N
VL: B1 VL with Q27K, R58L
B6: P-1201 (antibody, human IgG1, kappa, V domains shown)
VH: B1 VH with M48V, G49S, Y60F
VL: B1 VL
B7: P-1174 (antibody, human IgG1, kappa, V domains shown)
VH: B2 VH with N61A, E62Q, K65Q, N66G
VL: B1 VL
B8: P-1153 (antibody, human IgG1, kappa, V domains shown)
VH: B2 VH with F60Y, N61A, E62Q, K65Q, N66G
VL: B1 VL with H38A, E59A
notes: Full-length IgG1 L234A/L235A/G237A, kappa
B9: P-1271 (antibody, human IgG1, kappa, V domains shown)
VH: B2 VH with V9A, N61A, E62Q, K65Q, N66G, T77S, K84S, Q87R, F88S, T115L
VL: B1 VL
B10: P-1148 (antibody, human IgG1, kappa, V domains shown)
VH: B2 VH with N61A, E62Q, K65Q, N66G
VL: B1 VL with E59A
notes: as for B8
B11: P-1151 (antibody, human IgG1, kappa, V domains shown)
VH: B2 VH with F60Y, N61A, E62Q, K65Q, N66G
VL: B1 VL with E59A
notes: as for B8
B12: P-1150 (antibody, human IgG1, kappa, V domains shown)
VH: B2 VH with N61A, E62Q, K65Q, N66G
VL: B1 VL with H38A, E59A
notes: as for B8
B13: P-1177 (antibody, human IgG1, kappa, V domains shown)
VH: B1 VH with L70I, T72R, S74N
VL: B1 VL with Q27K, R58L
B14: P-1176 (antibody, human IgG1, kappa, V domains shown)
VH: B1 VH with M48V, G49S
VL: B1 VL with Q27K, R58L
B15: P-1178 (antibody, human IgG1, kappa, V domains shown)
VH: B1 VH
VL: B1 VL with Q27K, R58L
B16: P-1198 (antibody, human IgG1, kappa, V domains shown)
VH: B1 VH with M48V, G49S, Y60F, L70I, T72R
VL: B1 VL
notes: as for B8
B17: P-1199 (antibody, human IgG1, kappa, V domains shown)
VH: B1 VH with M48V, G49S, Y60F, L70I
VL: B1 VL
notes: as for B8
B18: P-1193 (antibody, human IgG1, kappa, V domains shown)
VH: B1 VH with M48V, G49S, Y60F, L70I, T72R, S74N
VL: B1 VL
notes: as for B8

Numbering of substitutions follows the chain as printed. Numbers in names are those of the source. Where “and” joins values, the source holds several entries; their conditions need not be identical. Identical values can stand only once.

T2 sequence (Q15116 25-170 limits assumed): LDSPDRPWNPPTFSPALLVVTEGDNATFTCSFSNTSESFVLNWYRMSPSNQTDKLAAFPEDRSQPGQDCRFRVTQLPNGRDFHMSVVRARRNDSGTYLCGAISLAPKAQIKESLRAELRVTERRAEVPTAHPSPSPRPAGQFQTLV

One assay deals with T1, human PD1 on cells (human, UniProt Q15116 25-288). In words: cell-based or functional assay.
T1 sequence (Q15116 25-288 limits assumed): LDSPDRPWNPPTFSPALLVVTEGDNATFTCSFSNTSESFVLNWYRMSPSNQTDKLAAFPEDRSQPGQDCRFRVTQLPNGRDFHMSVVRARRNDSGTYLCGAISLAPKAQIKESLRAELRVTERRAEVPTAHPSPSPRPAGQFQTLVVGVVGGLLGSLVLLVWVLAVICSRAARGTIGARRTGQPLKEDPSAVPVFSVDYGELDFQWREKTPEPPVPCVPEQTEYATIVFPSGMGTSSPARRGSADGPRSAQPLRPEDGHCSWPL
Consider B1, for which the “PD1 blockade reporter assay EC50” value turned out to be 0.73 nM.
The same measure, in the same setting: the same measure for B2: 0.58 nM.
As for B3, the “decrease in Emax and fold induction compared to P-0734” value stood at 25%; the “reduction in potency (EC50) compared to P-0734” value was determined as 10 fold.
Consider B4, for which the “PD1 blockade reporter assay EC50” value is 0.39 nM and 0.54 nM.
For B5, the “drop in potency compared to P-0734” value was 15 fold.
With B6, the “PD1 blockade reporter assay EC50” value was found to be 1.28 nM.
The same measure, in the same setting: the same measure for B7: 0.67 nM.
With B8, the “decrease in PD1 blockade potency (EC50) compared to P-0734” value was about 20 fold.
Take B9: the “PD1 blockade reporter assay EC50” value came out at 0.66 nM.

The next assay concerns the target T1, human PD1 on cells. In words: cell-based or functional assay. The source holds these as a separate data set.
On to B10, for which the “PD1 blocking activity (reporter assay) EC50” value was determined as 1.56 nM, the “PD1 blocking activity (reporter assay) Fold induction” value amounted to 4.63 fold and the “PD1 blocking activity (reporter assay) Vmax” value was found to be 48200 RLU.
As for B11, the “PD1 blocking activity (reporter assay) EC50” value stood at 2.83 nM, the “PD1 blocking activity (reporter assay) Fold induction” value is 4.15 fold and the “PD1 blocking activity (reporter assay) Vmax” value is 44300 RLU.
The matching figures for B8: 9.88 nM, 3.04 fold and 30800 RLU.
For B12, in that order: 5.55 nM, 3.49 fold and 36500 RLU.

The target of the next assay is T1, human PD1 on cells. In words: cell-based or functional assay. The source holds these as a separate data set.
With B13, the “PD1 blocking activity (reporter assay) EC50” value was determined as 1.51 nM, the “PD1 blocking activity (reporter assay) Fold induction” value was determined as 4.77 fold and the “PD1 blocking activity (reporter assay) Vmax” value was found to be 48100 RLU.
The matching figures for B14: 0.67 nM, 5.27 fold and 52100 RLU.
For B3, in that order: 6.21 nM, 4.07 fold and 42000 RLU.
For B15, in that order: 0.68 nM, 5.5 fold and 53100 RLU.
For B5, the “PD1 blocking activity (reporter assay) EC50” value came out at 9.18 nM, the “PD1 blocking activity (reporter assay) Fold induction” value stood at 3.26 fold and the “PD1 blocking activity (reporter assay) Vmax” value was determined as 29600 RLU.

In another assay the target is T1, human PD1 on cells. Nature of the assay: flow cytometry on PD1+ HEK293 cells, MFI. As for the experimental part: (§1) Additionally, HEK 293T cells stably expressing human PD1 gene (Crown Bioscience) was used to determine the cell-based binding strength of the optimized PD1 antibodies by flow cytometry. After harvesting, HEK293-hPD1 cells were seeded into a 96-well U-bottom plate at 1×10⁵ cells/well (100 μL), incubated with Fc block (1:50) for 20 minutes at 4° C., and subsequently washed with FACS buffer (PBS, 1% FBS). Cells were then treated with three-fold serial dilutions of each antibody at concentrations ranging from 0.01-100 nM in FACS buffer for 30 minutes at 4° C. Subsequently, cells were washed twice with FACS buffer to remove unbound molecules, and 40 µL of the 1:100 diluted PE-labeled goat anti-human Fc secondary antibody (eBiosciences) was added to the cells. Following a 30-minute incubation at 4° C. and another double wash with FACS buffer, antibodies bound to the cells were detected with PE-labeled secondary antibody by flow cytometry (BD ACCURI-C6), and EC₅₀ values were calculated using GraphPad Prism software.
For orientation: Flow cytometry measures light scatter and fluorescence of single cells or particles in a stream.
In general, EC50 refers to the concentration that produces a half-maximal response. The molecule B16 registered an EC50 of 0.087 nM.
As for B6, the concentration giving a half-maximal response (EC50) came to 0.159 nM.
Still for that read-out and setting: in the case of B17 it was 0.12 nM.
Same read-out and setting: in the case of B18 it was 0.259 nM.

The next assay addresses T2, recombinant human PD1 protein (human, UniProt Q15116 25-170, limits assumed). Nature of the assay: binding ELISA, plate-coated recombinant human PD1. As for the experimental part:
Antibodies of the invention were tested for their antigen binding activity by well-known methods such as enzyme-linked immunosorbent assay (ELISA). Briefly, Nunc Maxisorp plates (ThermoFisher) were coated with recombinant human PD1 protein in bicarbonate buffer, pH 9.4 (ThermoFisher), overnight at 4° C., using 1 μg of antigen per well (100 μL/well). After triple washing with PBS/0.05% Tween 20, plates were incubated with SuperBlock (ThermoFisher) for two hours at room temperature to block nonspecific binding. The PD1 antibodies, serially diluted three-fold with blocking buffer (PBS with 1% bovine serum albumin) were added to the plates (100 μL/well) post washing and incubated at room temperature for one hour. After another washing, antibodies were detected by incubating with a horseradish peroxidase (HRP)-conjugated goat anti-human IgG Fc antibody (ThermoFisher) diluted 1:5000 in blocking buffer (100 μL/well) for one hour at room temperature. After a final wash, TMB substrate (ThermoFisher) at 100 μL/well was added. Plates were sealed and left to incubate in dark for 5-20 minutes. The reaction was stopped by adding 2N sulfuric acid (Ricca Chemical) (50 μL/well), and the absorbance was measured at 450 nm with a plate reader. The curves were plotted, and the half-maximal effective concentration (EC₅₀) values were calculated using GraphPad Prism software.
Take B10: the EC50 turned out to be 0.093 nM.
The same measure, in the same setting: in the case of B11 it was 0.065 nM; in that of B8, 0.11 nM; in that of B12, 0.088 nM.
Same read-out and setting: the same measure for B9: 0.0268 nM.

In a further assay the target is T1, human PD1 on cells. In words: flow cytometry on PD1+ HEK293 cells, % positive cells. As for the experimental part: as §1
The molecule B16 had an EC50 of 0.019 nM.
Still for that read-out and setting: the same measure for B6: 0.033 nM; for B17: 0.016 nM; for B18: 0.07 nM.

A further assay concerns the target T2, recombinant human PD1 protein. In words: competition ELISA, PD1 coated, biotinylated human PD-L1-Fc at 0.5 µg/mL as competitor. As for the experimental part: A non-targeting germline antibody, P-1260 (SEQ ID NOS: 171, 172 and 173) was included as the negative control. The binding ELISA procedures were outlined in Example 3. The competition ELISA followed a similar protocol. […] After 1-hour incubation at 37° C., HRP-conjugated Streptavidin (ThermoFisher) diluted to 0.1 μg/ml were added to the plate and incubate at 37° C. for 1 hour. The plate was subsequently developed using TMB (ThermoFisher) substrate. Absorbance readings were taken at 450 nm, with 630 nm as the reference wavelength. The half-maximal inhibitory concentrations (IC50) values were deduced using GraphPad Prism software.
Background: ELISA stands for enzyme-linked immunosorbent assay.
The IC50 is the point on the concentration scale where inhibition reaches its midpoint. For B9, the half-inhibitory concentration (IC50) worked out at 1.42 nM.
